The record followed here is PMC5832153.

This test concerns the target FliC-aGFP_ENH_V2 (Salmonella) (UniProt P06179). Kind of test: ITC; sfGFP (0.065 mM) injected in 10 μl portions into FliC-aGFP_ENH in the cell; 25 °C; 20 mM Tris-HCl, 150 mM NaCl, pH 8.5; one-binding-site model. For orientation: In ITC the heat of successive injections is recorded.
UniProt P06179, sequence (P06179 whole entry): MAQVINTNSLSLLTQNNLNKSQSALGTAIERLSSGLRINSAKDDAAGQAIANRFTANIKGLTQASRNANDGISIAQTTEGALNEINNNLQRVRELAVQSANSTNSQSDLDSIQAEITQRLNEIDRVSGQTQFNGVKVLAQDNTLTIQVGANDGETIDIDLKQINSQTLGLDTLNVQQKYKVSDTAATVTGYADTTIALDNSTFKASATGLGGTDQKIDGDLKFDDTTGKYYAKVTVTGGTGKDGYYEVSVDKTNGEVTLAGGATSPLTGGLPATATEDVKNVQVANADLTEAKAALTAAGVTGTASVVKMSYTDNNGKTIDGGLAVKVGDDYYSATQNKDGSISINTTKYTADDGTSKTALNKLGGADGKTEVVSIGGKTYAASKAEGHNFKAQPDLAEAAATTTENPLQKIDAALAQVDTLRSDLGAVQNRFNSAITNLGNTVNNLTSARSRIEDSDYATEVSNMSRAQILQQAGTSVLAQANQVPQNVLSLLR

In general, Kd refers to the concentration at which binding is half-saturated. The low end stands for higher affinity, the high end for lower affinity. As usually defined, the stoichiometry N is the number of molecules, sites or subunits per partner or assembly. In turn, “C-terminally His-tagged superfolder GFP (from UniProt P42212 1-238) (natural protein)” showed a Kd of 1.1 nM, a dH of -9.3 kcal/mol and a stoichiometry N of 0.86.
